Where two headings read alike, the source gives them in different places.
How the values were obtained:
Test in all cases: BLI
EGFRvIII [1] = biological target: T1, EGFRvIII (human, UniProt P00533)
[2] = biological target: T2, EGFR (wild-type, His-tagged or biotinylated) (human, UniProt P00533)
EGFRvIII [3] = biological target: T1, EGFRvIII; remark: listed apart in the source
[4] = biological target: T2, EGFR (wild-type, His-tagged or …); remark: listed apart in the source

B1: SI-95X27 (antibody)
chain 1: not shown
chain 2: DILMTQSPSSMSVSLGDTVSITCHSSQDINSNIGWLQQRPGKSFKGLIYHGTNLDDEVPSRFSGSGSGADYSLTISSLESEDFADYYCVQYAQFPWTFGGGTKLEIKGGGGSGGGGSGGGGSDVQLQESGPSLVKPSQSLSLTCTVTGYSITSDFAWNWIRQFPGNKLEWMGYISYSGNTRYNPSLKSRISITRDTSKNQFFLQLNSVTIEDTATYYCVTAGRGFPYWGQGTLVTVSAGGGGSGSGSGGGGGSGGGGSGGGGSDIQMTQSPSSLSASVGDRVTITCRSSQNIVHSNGNTYLDWYQQTPGKAPKLLIYKVSNRFSGVPSRFSGSGSGTDFTFTISSLQPEDIATYYCFQYSHVPWTFGQGTKLQITRTVAAPSVFIFPPSDEQLKSGTASVVCLLNNFYPREAKVQWKVDNALQSGNSQESVTEQDSKDSTYSLSSTLTLSKADYEKHKVYACEVTHQGLSSPVTKSFNRGEC
Kd (EGFRvIII [1]): 0.507 nM
Kd [2]: 10.7 nM

B2: SI-95X30 (antibody)
chain 1: not shown
chain 2: DIQMTQSPSSLSASVGDRVTITCRSSQNIVHSNGNTYLDWYQQTPGKAPKLLIYKVSNRFSGVPSRFSGSGSGTDFTFTISSLQPEDIATYYCFQYSHVPWTFGQGTKLQITRTVAAPSVFIFPPSDEQLKSGTASVVCLLNNFYPREAKVQWKVDNALQSGNSQESVTEQDSKDSTYSLSSTLTLSKADYEKHKVYACEVTHQGLSSPVTKSFNRGECGGGGSGSGSGGGGGSGGGGSGGGGSDVQLQESGPSLVKPSQSLSLTCTVTGYSITSDFAWNWIRQFPGNKLEWMGYISYSGNTRYNPSLKSRISITRDTSKNQFFLQLNSVTIEDTATYYCVTAGRGFPYWGQGTLVTVSAGGGGSGGGGSGGGGSDILMTQSPSSMSVSLGDTVSITCHSSQDINSNIGWLQQRPGKSFKGLIYHGTNLDDEVPSRFSGSGSGADYSLTISSLESEDFADYYCVQYAQFPWTFGGGTKLEIK
Kd (EGFRvIII [1]): 1.24 nM
Kd [2]: 8.84 nM

B3: SI-95X31 (antibody)
chain 1: not shown
chain 2: DIQMTQSPSSLSASVGDRVTITCRSSQNIVHSNGNTYLDWYQQTPGKAPKLLIYKVSNRFSGVPSRFSGSGSGTDFTFTISSLQPEDIATYYCFQYSHVPWTFGQGTKLQITRTVAAPSVFIFPPSDEQLKSGTASVVCLLNNFYPREAKVQWKVDNALQSGNSQESVTEQDSKDSTYSLSSTLTLSKADYEKHKVYACEVTHQGLSSPVTKSFNRGECGGGGSGGGGSGSGSGGGGGSGGGGSGGGGSDVQLQESGPSLVKPSQSLSLTCTVTGYSITSDFAWNWIRQFPGNKLEWMGYISYSGNTRYNPSLKSRISITRDTSKNQFFLQLNSVTIEDTATYYCVTAGRGFPYWGQGTLVTVSAGGGGSGGGGSGGGGSDILMTQSPSSMSVSLGDTVSITCHSSQDINSNIGWLQQRPGKSFKGLIYHGTNLDDEVPSRFSGSGSGADYSLTISSLESEDFADYYCVQYAQFPWTFGGGTKLEIK
Kd (EGFRvIII [1]): 1.08 nM
Kd [2]: 10.5 nM

B4: SI-95X3 (antibody)
chain 1: not shown
chain 2: DILMTQSPSSMSVSLGDTVSITCHSSQDINSNIGWLQQRPGKSFKGLIYHGTNLDDEVPSRFSGSGSGADYSLTISSLESEDFADYYCVQYAQFPWTFGGGTKLEIKRTVAAPSVFIFPPSDEQLKSGTASVVCLLNNFYPREAKVQWKVDNALQSGNSQESVTEQDSKDSTYSLSSTLTLSKADYEKHKVYACEVTHQGLSSPVTKSFNRGEC
Kd (EGFRvIII [1]): 0.375 nM
Kd [2]: 0.68 nM

B5: SI-95X35 (antibody)
chain 1: not shown
chain 2: DILMTQSPSSMSVSLGDTVSITCHSSQDINSNIGWLQQRPGKSFKGLIYHGTNLDDEVPSRFSGSGSGADYSLTISSLESEDFADYYCVQYAQFPWTFGGGTKLEIKRTVAAPSVFIFPPSDEQLKSGTASVVCLLNNFYPREAKVQWKVDNALQSGNSQESVTEQDSKDSTYSLSSTLTLSKADYEKHKVYACEVTHQGLSSPVTKSFNRGEC
Kd (EGFRvIII [1]): 0.628 nM
Kd [2]: 0.686 nM

B6: SI-95X29 (antibody)
chain 1: not shown
chain 2: DIQMTQSPSSLSASVGDRVTITCRSSQNIVHSNGNTYLDWYQQTPGKAPKLLIYKVSNRFSGVPSRFSGSGSGTDFTFTISSLQPEDIATYYCFQYSHVPWTFGQGTKLQITRTVAAPSVFIFPPSDEQLKSGTASVVCLLNNFYPREAKVQWKVDNALQSGNSQESVTEQDSKDSTYSLSSTLTLSKADYEKHKVYACEVTHQGLSSPVTKSFNRGECSGSGSGGGGGSGGGGSGGGGSDVQLQESGPSLVKPSQSLSLTCTVTGYSITSDFAWNWIRQFPGNKLEWMGYISYSGNTRYNPSLKSRISITRDTSKNQFFLQLNSVTIEDTATYYCVTAGRGFPYWGQGTLVTVSAGGGGSGGGGSGGGGSDILMTQSPSSMSVSLGDTVSITCHSSQDINSNIGWLQQRPGKSFKGLIYHGTNLDDEVPSRFSGSGSGADYSLTISSLESEDFADYYCVQYAQFPWTFGGGTKLEIK
Kd (EGFRvIII [1]): 1.12 nM
Kd [2]: 10.1 nM

B7: SI-95X24 (antibody)
chain 1: not shown
chain 2: DVQLQESGPSLVKPSQSLSLTCTVTGYSITSDFAWNWIRQFPGNKLEWMGYISYSGNTRYNPSLKSRISITRDTSKNQFFLQLNSVTIEDTATYYCVTAGRGFPYWGQGTLVTVSAGGGGSGGGGSGGGGSDILMTQSPSSMSVSLGDTVSITCHSSQDINSNIGWLQQRPGKSFKGLIYHGTNLDDEVPSRFSGSGSGADYSLTISSLESEDFADYYCVQYAQFPWTFGGGTKLEIKGGGGSGSGSGGGGGSGGGGSGGGGSDIQMTQSPSSLSASVGDRVTITCRSSQNIVHSNGNTYLDWYQQTPGKAPKLLIYKVSNRFSGVPSRFSGSGSGTDFTFTISSLQPEDIATYYCFQYSHVPWTFGQGTKLQITRTVAAPSVFIFPPSDEQLKSGTASVVCLLNNFYPREAKVQWKVDNALQSGNSQESVTEQDSKDSTYSLSSTLTLSKADYEKHKVYACEVTHQGLSSPVTKSFNRGEC
Kd (EGFRvIII [1]): 1.45 nM
Kd [2]: 7.94 nM

B8: SI-95X18 (antibody)
chain 1: not shown
chain 2: DIQMTQSPSSLSASVGDRVTITCRSSQNIVHSNGNTYLDWYQQTPGKAPKLLIYKVSNRFSGVPSRFSGSGSGTDFTFTISSLQPEDIATYYCFQYSHVPWTFGQGTKLQITRTVAAPSVFIFPPSDEQLKSGTASVVCLLNNFYPREAKVQWKVDNALQSGNSQESVTEQDSKDSTYSLSSTLTLSKADYEKHKVYACEVTHQGLSSPVTKSFNRGEC
Kd (EGFRvIII [1]): 0.593 nM
Kd [2]: 4.17 nM

B9: SI-95X25 (antibody)
chain 1: not shown
chain 2: DVQLQESGPSLVKPSQSLSLTCTVTGYSITSDFAWNWIRQFPGNKLEWMGYISYSGNTRYNPSLKSRISITRDTSKNQFFLQLNSVTIEDTATYYCVTAGRGFPYWGQGTLVTVSAGGGGSGGGGSGGGGSDILMTQSPSSMSVSLGDTVSITCHSSQDINSNIGWLQQRPGKSFKGLIYHGTNLDDEVPSRFSGSGSGADYSLTISSLESEDFADYYCVQYAQFPWTFGGGTKLEIKGGGGSGGGGSGSGSGGGGGSGGGGSGGGGSDIQMTQSPSSLSASVGDRVTITCRSSQNIVHSNGNTYLDWYQQTPGKAPKLLIYKVSNRFSGVPSRFSGSGSGTDFTFTISSLQPEDIATYYCFQYSHVPWTFGQGTKLQITRTVAAPSVFIFPPSDEQLKSGTASVVCLLNNFYPREAKVQWKVDNALQSGNSQESVTEQDSKDSTYSLSSTLTLSKADYEKHKVYACEVTHQGLSSPVTKSFNRGEC
Kd (EGFRvIII [1]): 1.21 nM
Kd [2]: 13.4 nM

B10: SI-95X28 (antibody)
chain 1: not shown
chain 2: DILMTQSPSSMSVSLGDTVSITCHSSQDINSNIGWLQQRPGKSFKGLIYHGTNLDDEVPSRFSGSGSGADYSLTISSLESEDFADYYCVQYAQFPWTFGGGTKLEIKGGGGSGGGGSGGGGSDVQLQESGPSLVKPSQSLSLTCTVTGYSITSDFAWNWIRQFPGNKLEWMGYISYSGNTRYNPSLKSRISITRDTSKNQFFLQLNSVTIEDTATYYCVTAGRGFPYWGQGTLVTVSAGGGGSGGGGSGSGSGGGGGSGGGGSGGGGSDIQMTQSPSSLSASVGDRVTITCRSSQNIVHSNGNTYLDWYQQTPGKAPKLLIYKVSNRFSGVPSRFSGSGSGTDFTFTISSLQPEDIATYYCFQYSHVPWTFGQGTKLQITRTVAAPSVFIFPPSDEQLKSGTASVVCLLNNFYPREAKVQWKVDNALQSGNSQESVTEQDSKDSTYSLSSTLTLSKADYEKHKVYACEVTHQGLSSPVTKSFNRGEC
Kd (EGFRvIII [1]): 0.579 nM
Kd [2]: 7.56 nM

B11: SI-95X48 (antibody)
chain 1: not shown
chain 2: EIVLTQSPSTLSVSPGERATFSCRASQSIGTNIHWYQQKPGKPPRLLIKYASESISGIPDRFSGSGSGTEFTLTISSVQSEDFAVYYCQQNNNWPTTFGPGTKLTVLRTVAAPSVFIFPPSDEQLKSGTASVVCLLNNFYPREAKVQWKVDNALQSGNSQESVTEQDSKDSTYSLSSTLTLSKADYEKHKVYACEVTHQGLSSPVTKSFNRGEC
Kd (EGFRvIII [3]): 0.404 nM
Kd [4]: 25.5 nM

B12: SI-95X66 (antibody)
chain 1: not shown
chain 2: DILMTQSPSSMSVSLGDTVSITCHSSQDINSNIGWLQQRPGKSFKGLIYHGTNLDDEVPSRFSGSGSGADYSLTISSLESEDFADYYCVQYAQFPWTFGGGTKLEIKRTVAAPSVFIFPPSDEQLKSGTASVVCLLNNFYPREAKVQWKVDNALQSGNSQESVTEQDSKDSTYSLSSTLTLSKADYEKHKVYACEVTHQGLSSPVTKSFNRGEC
Kd (EGFRvIII [3]): 0.576 nM
Kd [4]: 4.65 nM

B13: SI-95X61 (antibody)
chain 1: not shown
chain 2: EIVLTQSPSTLSVSPGERATFSCRASQSIGTNIHWYQQKPGKPPRLLIKYASESISGIPDRFSGSGSGTEFTLTISSVQSEDFAVYYCQQNNNWPTTFGPGTKLTVLRTVAAPSVFIFPPSDEQLKSGTASVVCLLNNFYPREAKVQWKVDNALQSGNSQESVTEQDSKDSTYSLSSTLTLSKADYEKHKVYACEVTHQGLSSPVTKSFNRGECGGGGSGGGGGSGGGGSGGGGSQVQLQESGPSLVKPSQTLSLTCTVSGYSITSDFAWNWIRQFPGRKLEWMGYISYSGNTRYNPSLKSRFTISRDTSKNQFYLKLRSVTIADTAVYYCVTAGRGFPYWGQGTLVTVSSGGGGSGGGGSGGGGSDIVMTQSPSSVSLSLGDRVTITCHSSQDINSNIGWLQQKPGKAFKGLIYHGTNLDDGVPSRFSGSGSGADYTLTISSLQAEDFATYYCVQYAQFPWTFGPGTKLEIK
Kd (EGFRvIII [3]): 0.573 nM
Kd [4]: 4.89 nM

B14: SI-95X67 (antibody)
chain 1: not shown
chain 2: DILMTQSPSSMSVSLGDTVSITCHSSQDINSNIGWLQQRPGKSFKGLIYHGTNLDDEVPSRFSGSGSGADYSLTISSLESEDFADYYCVQYAQFPWTFGGGTKLEIKRTVAAPSVFIFPPSDEQLKSGTASVVCLLNNFYPREAKVQWKVDNALQSGNSQESVTEQDSKDSTYSLSSTLTLSKADYEKHKVYACEVTHQGLSSPVTKSFNRGEC
Kd (EGFRvIII [3]): 1.24 nM
Kd [4]: 7.06 nM
